A short description of this series: self-splicing fitness, log relative to wild type (ln ratio); higher = more splicing; Tetrahymena group I intron in knt gene, E. coli kanamycin selection, DiMSum; sequences stand for … in CUCUCU…GGAGGGAAAAGUUAUCAGGCAUGCACCUGGUAGCUAGUCUUUAAACCAAUAGAUUGCAUCGGUUUAAAAGGCAAGACCGUCAAAUUGCGGGAAAGGGGUCAACAGCCGUUCAGUACCAAGUCUCAGGGGAAACUUUGAGAUGGCCUUGCAAAGGGUAUGGUAAUAAGCUGACGGACAUGGUCCUAACCACGCAGCCAAGUCCUAAGUCAACAGAUCUUCUGUUGAUAUGGAUGCAGUUCACAGACUAAAUGUCGGUCGGGGAAGAUGUAUUCUUCUCAUAAGAUAUAGUCGGACCUCUCCUUAAUGGGAGCUAGCGGAUGAAGUGAUGCAACACUGGAGCCGCUGGGAACUAAUUUGUAUGCGAAAGUAUAUUGAUUAGUUUUGGAGUACUCGUGGUCG
A digest of the protocol:
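DiMSum derived fitness as the error-weighted combination of fold changes across replicates, kanamycin versus no kanamycin, normalised to wild type. E. coli BL21(DE3) held the library, which randomised all eight P1ex-region intron nucleotides within the knt kanamycin-resistance gene on pET-22b(+). Six replicate transformations grew overnight at 37°C or 30°C on LB agar with or without 25 μg/mL kanamycin, also containing 100 μg/mL carbenicillin, 50 μM IPTG and 0.2% rhamnose, and pooled colonies were amplicon-sequenced on an Illumina HiSeq 2500.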

± gives the uncertainty stated by the source.

For the sequence AACAAGCAAUAUUACGUCGA, the “self-splicing fitness (ln)” value reads like this: (30 °C) -1.27 ± 0.087; (37 °C) -0.532 ± 0.092.

CCGCAGCAAUAUUACGAAUU: the “self-splicing fitness (ln)” value by setting is: (30 °C) -3.73 ± 0.19; (37 °C) -2.51 ± 0.2. As for AUUGAGCAAUAUUACGAGUU, the “self-splicing fitness (ln)” value (30 °C) was -2.58 ± 0.14 and the “self-splicing fitness (ln)” value (37 °C) is -2.23 ± 0.17. For AGGUAGCAAUAUUACGUGGG the same measures were -3.908 ± 0.027 and -2.98 ± 0.039. For GAAGAGCAAUAUUACGUUAA the same measures were -2.65 ± 0.22 and -1.65 ± 0.2. For GCACAGCAAUAUUACGGUUU the same measures were -0.633 ± 0.047 and 0.145 ± 0.057. With CGGGAGCAAUAUUACGCAGC, the “self-splicing fitness (ln)” value (30 °C) is -3.21 ± 0.24 and the “self-splicing fitness (ln)” value (37 °C) is -2.72 ± 0.43. Consider GUUAAGCAAUAUUACGUGUA, for which the “self-splicing fitness (ln)” value was -2.09 ± 0.098 (30 °C) and -0.751 ± 0.091 (37 °C). For CGAGAGCAAUAUUACGACUG the same measures were -1.29 ± 0.15 and -0.27 ± 0.19.

Consider GCAUAGCAAUAUUACGCGGG, for which the “self-splicing fitness (ln)” value is, setting by setting: (30 °C) -3.23 ± 0.14; (37 °C) -0.875 ± 0.11. For GUGAAGCAAUAUUACGACCG the same measures were -1.63 ± 0.23 and 0.706 ± 0.28. On to UUAAAGCAAUAUUACGAUGG, for which the “self-splicing fitness (ln)” value was 0.00244 ± 0.084 (30 °C) and 0.04 ± 0.1 (37 °C). For GCUAAGCAAUAUUACGUGCA, the “self-splicing fitness (ln)” value is, setting by setting: (30 °C) -0.433 ± 0.094; (37 °C) -0.212 ± 0.1. For GAGCAGCAAUAUUACGAGCC the same measures were -0.545 ± 0.19 and -0.285 ± 0.21.

As to GAGCAGCAAUAUUACGCGUA, the “self-splicing fitness (ln)” value runs as follows: (30 °C) -0.655 ± 0.18; (37 °C) -0.959 ± 0.14. On to GUUAAGCAAUAUUACGCUAA, for which the “self-splicing fitness (ln)” value was -2.35 ± 0.14 (30 °C) and -1.54 ± 0.15 (37 °C).

GCACAGCAAUAUUACGGGAG: the “self-splicing fitness (ln)” value is, setting by setting: (30 °C) -1.96 ± 0.1; (37 °C) -1.47 ± 0.12.

As for GCUGAGCAAUAUUACGGCUG, the “self-splicing fitness (ln)” value is -1.57 ± 0.26 (30 °C) and -1.96 ± 0.44 (37 °C).

For UCGUAGCAAUAUUACGAAAC, the “self-splicing fitness (ln)” value (37 °C) is -2.91 ± 0.38. With UAGCAGCAAUAUUACGGCAU, the “self-splicing fitness (ln)” value by setting is: (30 °C) -1.29 ± 0.081; (37 °C) -0.191 ± 0.089.

For the sequence AGGAAGCAAUAUUACGUCUU, the “self-splicing fitness (ln)” value runs as follows: (30 °C) -2.07 ± 0.062; (37 °C) -1.59 ± 0.08. For CACUAGCAAUAUUACGUACU the same measures were -2.87 ± 0.16 and -2.81 ± 0.19. Turning to UAUUAGCAAUAUUACGGAUA, the “self-splicing fitness (ln)” value (37 °C) was -0.897 ± 0.46. Take UUGCAGCAAUAUUACGUAUA: the “self-splicing fitness (ln)” value is -1.32 ± 0.12 (30 °C) and -1.01 ± 0.12 (37 °C). For GUGGAGCAAUAUUACGAACG the same measures were -2.43 ± 0.43 and -1.53 ± 0.41. As to CAGCAGCAAUAUUACGCAUG, the “self-splicing fitness (ln)” value is -3.11 ± 0.16 (30 °C) and -2.42 ± 0.16 (37 °C).

As for CAGUAGCAAUAUUACGGCGC, the “self-splicing fitness (ln)” value reads like this: (30 °C) -1.59 ± 0.4; (37 °C) -0.863 ± 0.25. As to GUACAGCAAUAUUACGGUCG, the “self-splicing fitness (ln)” value was -1.36 ± 0.058 (30 °C) and -0.547 ± 0.084 (37 °C).

Take AACAAGCAAUAUUACGGGAG: the “self-splicing fitness (ln)” value is -2.51 ± 0.093 (30 °C) and -1.96 ± 0.1 (37 °C).

As to GCCAAGCAAUAUUACGGCCA, the “self-splicing fitness (ln)” value by setting is: (30 °C) -1.42 ± 0.21; (37 °C) -1.18 ± 0.25. For CUCGAGCAAUAUUACGAUGA the same measures were -2.19 ± 0.19 and -1.36 ± 0.2. For UCAGAGCAAUAUUACGACUU the same measures were -2.45 ± 0.19 and -3.12 ± 0.38. For CAAUAGCAAUAUUACGUAGG the same measures were -0.348 ± 0.092 and -0.384 ± 0.14. Regarding ACUGAGCAAUAUUACGGUGA, the “self-splicing fitness (ln)” value (30 °C) was -2.02 ± 0.13 and the “self-splicing fitness (ln)” value (37 °C) was -3.65 ± 0.24. For GUCCAGCAAUAUUACGGUAU the same measures were -0.797 ± 0.052 and 0.0993 ± 0.064. Regarding GCAGAGCAAUAUUACGCGCU, the “self-splicing fitness (ln)” value (37 °C) is -2.13 ± 0.35.

Consider GCCUAGCAAUAUUACGAAGA, for which the “self-splicing fitness (ln)” value (30 °C) was -1.82 ± 0.24 and the “self-splicing fitness (ln)” value (37 °C) was -0.65 ± 0.12.

On to GUCAAGCAAUAUUACGAGUA, for which the “self-splicing fitness (ln)” value reads like this: (30 °C) -3.43 ± 0.19; (37 °C) -1.98 ± 0.15.

The record behind these values is the supplement of paper PMC7877785.
